The assay addresses T1, GST-Hoxa1-993 (mouse, UniProt P09022 1-331).
T1 sequence (looked up): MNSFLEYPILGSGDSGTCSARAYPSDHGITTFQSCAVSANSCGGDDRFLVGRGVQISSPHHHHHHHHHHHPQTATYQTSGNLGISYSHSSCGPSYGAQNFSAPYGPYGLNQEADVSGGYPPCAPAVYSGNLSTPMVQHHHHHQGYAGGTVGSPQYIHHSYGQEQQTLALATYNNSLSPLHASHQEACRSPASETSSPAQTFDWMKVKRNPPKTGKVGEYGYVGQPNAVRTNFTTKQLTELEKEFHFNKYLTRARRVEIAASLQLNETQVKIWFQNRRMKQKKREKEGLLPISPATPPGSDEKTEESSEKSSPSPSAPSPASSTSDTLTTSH
Kind of assay: pull-down.

B1: Hoxa1-399, [35S]-labeled, in vitro translated (natural protein, mouse, UniProt P09022-2 1-133, looked up)
chain: MNSFLEYPILGSGDSGTCSARAYPSDHGITTFQSCAVSANSCGGDDRFLVGRGVQISSPHHHHHHHHHHHPQTATYQTSGNLGISYSHSSCGPSYGAQNFSAPYGPYGLNQEADPPRSLSFPCFRDVFSSADL
modifications: [35S]-cysteine radiolabel
As to B1, the “fold bound over GST alone” value stood at 8 fold.

Source of the values: publication PMC3923656 (Journal of cellular biochemistry, 2009).
